Experimental data published in patent publication US6936708, “Expression of Alfin 1 and methods for producing transgenic plants having increased root growth and root specific gene activation” (Arizona Board of Regents, acting for and on behalf of …).

T1: Alfin1 (Medicago sativa, UniProt Q40359 Q40359:1-257)
T1 sequence: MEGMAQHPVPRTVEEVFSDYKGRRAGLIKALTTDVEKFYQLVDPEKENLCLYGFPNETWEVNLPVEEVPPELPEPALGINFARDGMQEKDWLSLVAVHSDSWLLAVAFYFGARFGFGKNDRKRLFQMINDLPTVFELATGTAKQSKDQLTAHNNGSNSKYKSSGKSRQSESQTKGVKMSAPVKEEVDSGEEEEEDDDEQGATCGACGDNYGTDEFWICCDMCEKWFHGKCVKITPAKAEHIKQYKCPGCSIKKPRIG

B1: Alfin1 binding sequence SEQ 6 (dsDNA)
DNA 1: GACGGGTAGGGTGTGGGGGGTGTTTTATT
DNA 2: AATAAAACACCCCCCACACCCTACCCGTC
B2: Alfin1 binding sequence SEQ 7 (dsDNA)
DNA 1: GACGGGGATAGGTGAGGTGGAGGGACAAT
DNA 2: ATTGTCCCTCCACCTCACCTATCCCCGTC
B3: Alfin1 binding sequence SEQ 4 (dsDNA)
DNA 1: GACGCAAAGGGGGTGGGGACGGCGCTTTT
DNA 2: AAAAGCGCCGTCCCCACCCCCTTTGCGTC
B4: Alfin1 binding sequence SEQ 8 (dsDNA)
DNA 1: GACGGCAGAAGGGAGAAACGTGGAGAATC
DNA 2: GATTCTCCACGTTTCTCCCTTCTGCCGTC
B5: Alfin1 binding sequence SEQ 9 (dsDNA)
DNA 1: GACGGCGGGAAGGAGTGTGGTAGAGAGCC
DNA 2: GGCTCTCTACCACACTCCTTCCCGCCGTC
B6: Alfin1 binding sequence SEQ 10 (dsDNA)
DNA 1: GACGAAGGAAGGACGGCAGCGTGTTGC
DNA 2: GCAACACGCTGCCGTCCTTCCTTCGTC
B7: Alfin1 binding sequence SEQ 5 (dsDNA)
DNA 1: GACGCAAAGGGGGTGGGGACGGCGCTTTT
DNA 2: AAAAGCGCCGTCCCCACCCCCTTTGCGTC

These binders were tested against T1, Alfin1 (assay: DNA sequence that binds Alfin1 in vitro).
From the text: (§1) To identify DNA sequences that are recognized by Alfin1 protein, the purified Alfin1 protein was used in the "random DNA binding" assay (See: Rauscher III F. J., Morris J. F., Tournay O. E., Cook D. M., Curran T. *Binding of the Wilm's tumor locus* zinc finger protein to the EGR-1 consensus sequence. Science, 1990; 250, 1259–1262) and the bound DNA purified by four rounds of PCR amplification and binding, followed by cloning of the isolated sequences.

Binding result, binds:
B1, B2, B3, B4, B5, B6

What follows are binders tested against T1, Alfin1 (assay: DNA sequence that binds Alfin1 in vitro; listed identical to SEQ 4).
From the text: as §1

Binding result, binds:
B7
